Results on five molecules are retold here after patent US20110311517A1 (SHENOGEN PHARMA GROUP, published 2011).

Assay [1] concerns the target T1, recombinant human ERα36 (hER-α36, SEQ ID NO:1) expressed in HEK293 cells (human, UniProt P03372 174-457).
T1 construct: Present in lysates of ERα36-expressing HEK293 cells, separated by SDS-PAGE and blotted on PVDF (Western blot); also called recombinant ERα36
T1 sequence: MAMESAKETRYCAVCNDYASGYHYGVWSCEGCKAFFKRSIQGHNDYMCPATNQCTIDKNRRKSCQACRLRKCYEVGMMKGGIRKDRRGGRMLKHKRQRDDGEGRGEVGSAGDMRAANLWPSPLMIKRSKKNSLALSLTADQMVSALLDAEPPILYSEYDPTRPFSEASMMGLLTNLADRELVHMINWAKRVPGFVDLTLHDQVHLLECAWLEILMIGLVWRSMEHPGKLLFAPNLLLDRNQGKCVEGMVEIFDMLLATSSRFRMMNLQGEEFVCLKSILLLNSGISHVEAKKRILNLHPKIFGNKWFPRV
As to the kind of experiment: Western blot on lysates of ERα36-expressing HEK293 cells, anti-His-HRP. As for the experimental part:
ScFv1˜ScFv7 obtained after purification and renaturation were characterized using Western Blot. HEK293 cells were artificially constructed to express recombinant ERα36. Human breast cancer cells SK-BR-3 and ERα36-expressing HEK293 cells were cultured, harvested, and lysed by lysis buffer to obtain the cell lysates respectively. 20 μg/lane of the lysates were then loaded for SDS-PAGE. After electrophoresis, the protein samples were electronically transferred to PVDF membrane labeled with ScFv1˜ScFv7 respectively. The membranes were blocked with non-fat milk and anti-His-HRP was added to show the resulting images (FIG. 16).
A general note: In western blotting, separated proteins are transferred to a membrane and probed.

In assay [2] the target is T2, biotinylated ERα36 (chemically synthesised target peptide, SEQ ID NO:2) (human, labeled with biotin (site not stated)).
T2 construct: also called biotinylated ER36; biotinylated ERα36 peptides
T2 peptide: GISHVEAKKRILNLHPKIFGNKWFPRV
As to the kind of experiment: ELISA on biotinylated ERα36 (streptavidin plate), ScFv 0.28 µg/ml, well 1. As for the experimental part: (§1) Streptavidin-coated 96-well plates were washed twice with PBS. Biotinylated ERα36 (final concentration of 20 μg/ml) was added into each testing well. The plates were incubated for 2 h at room temperature and washed three times with PBST. Re-natured ScFv samples (100 μl, S14A1r1, S24A2r2, S33A2r1, S41A3r3, S53A1r1, S66A1r1 and S72A2r1) were added into the testing wells respectively. Each ScFv was diluted five times in five gradients, and two parallel wells were loaded with each ScFv at each gradient. The plates were incubated at 37° C. for 1 h. The plates were washed three times with PBST, followed by addition of 100 μl anti-His-6 mouse monoclonal antibody (1:2000 dilution) per well and 1 h incubation at 37° C. The plates were washed three times with PBST, followed by addition of 100 μl goat anti-mouse-HRP (1:2500 dilution) per well and 1 h incubation at 37° C. The plates were washed six times with PBST, followed by addition of 100 μl OPD to develop under the protection from light. The reactions were terminated by adding 50 μl 2M H₂SO₄ to each well, and data were collected by microplate reader at 490 nm.
(§2) One positive control and three negative controls were performed in parallel. The positive control used rabbit anti-ER multi-clonal antibody serum in replacement of the ScFv re-natured sample and goat-anti-rabbit-HRP in replacement of goat-anti-mouse HRP.
(In general: ELISA stands for enzyme-linked immunosorbent assay.)

Assay [3] has as its target T2, biotinylated ERα36 (chemically …). Description: ELISA on biotinylated ERα36 (streptavidin plate), ScFv 0.28 µg/ml, well 2. As for the experimental part: as §1, §2
The target is the same in assay [4]. As to the kind of experiment: phage ELISA, biotinylated ERα36 on neutravidin plate, well 1. As for the experimental part:
(§3) Neutravidin-coated plates (purchased from Pierce) were washed with washing buffer (PBS containing 0.1% Tween-20) and all wells of the plates were blocked by incubating in blocking buffer at 4° C. for 1-2 h. Then the blocked plates were taken away from the blocking buffer, washed six times with washing buffer and dried upside-down. Biotinylated ERα36 in PBS (100 μl) was added to each testing well of the plates, incubated for 1-2 h at room temperature and removed. The plates were washed once with washing buffer. Phage solution (100 μl) was added per well and incubated for 1-2 h at room temperature. The plates were washed six times with the washing buffer. HRP-conjugated rabbit anti-M13 antibody (purchased from GE Healthcare) was diluted by 1:5,000 in blocking buffer. The diluted HRP-conjugated rabbit anti-M13 antibody (100 μl) was added to each well and incubated for 1 h at room temperature followed by washing six times with washing buffer.
(§4) HRP substrate solution (100 μl) was added to each testing well and incubated for 30 min at room temperature. The signals were detected using a microplate reader at 490 nm. […] The positive controls were plates coated with M13 phage and detected with HRP-conjugated anti-M13 antibodies.

For assay [5] the target is unchanged. As to the kind of experiment: phage ELISA, biotinylated ERα36 on neutravidin plate, well 2. As for the experimental part: as §3, §4
For assay [6] the target is unchanged. As to the kind of experiment: phage ELISA, biotinylated ERα36 on neutravidin plate, well 3. On the procedure:
as §3, §4

B1: human anti-ERα36 ScFv6 (purified, re-natured) (scFv)
scFv: EIVMTQSPGTLSLSPGERATLSCRASQSVDSNFLAWYQQRPGQAPRLLIYGVSSSATGIPDRFSGSGSGTDFTLSIDRLEPEDFAVYYCQQYGSSPTFGGGTKLEIKRSGGSTITSYNVYYTKLSSSGTQVQLQESGGGLVQPGRSLRLSCAASGFTFDDYAMHWVRQAPGKGLEWVSGISWNSGSIGYADSVKGRFTISRDNAKNSLYLQMNSLRAEDTAVYYCARSGDYGAFDIWGQGTMVTVSSAS
notes: also called S66; S66A1r1
On to B1, for which the binding result in assay [1] is “binds”.

B2: human anti-ERα36 ScFv2 (purified, re-natured) (scFv)
scFv: QSALTQPASVSGSPGQSITISCTGTSSDVGGYNYVSWYQQHPGKAPKLMIYDVSKRPSGVSNRFSGSKSGNTASLTISGLQAEDEADYYCSSYTSSSTLVFGGGTKLTVLGSGGSTITSYNVYYTKLSSSGTQVQLLESGAEVKKPGASVKVSCKASGYTFTAYYMHWVRQAPGQGLEWMAMIDPSGSITSYAQKFQGRVTMSRDTSTSTLYMELSSLRSDDTAVYYCARDLKEGFSVPGAFDIWGQGTMVTVSSAS
notes: also called S24; S24A2r2
On to B2, for which the binding result in assay [1] is reported as “binds”. Also, the OD490 turned out to be 0.093 OD490 in assay [2] and 0.09 OD490 in assay [3].

B3: human anti-ERα36 ScFv3 (purified, re-natured) (scFv)
scFv: QSVLTQPASVSGSPGQSITISCTGTSSDVGGYNYVSWYQQHPGKAPKLMIYDVSKRPSGVSNRFSGSKSGNTASLTISGLQAEDEADYYCSSYTSSSTLVFGGGTKLTVLGSGGSTITSYNVYYTKLSSSGTEVQLVQSGGGVAQPGRSLRLSCAASGITFNSYGMHWVRQAPGKGLEWVAVMPYDGSNEYYADSVKGRFTISRDNSKNTLYLQMNSLRAEDTAVYYCAKGSGMVQLWADAFDVWGQGTMVTVSSAS
notes: also called S33; S33A2r1
Turning to B3, the binding result in assay [1] is on record as “binds”. In addition, the OD490 amounted to 0.159 OD490 in assay [2] and 0.171 OD490 in assay [3].

B4: human anti-ERα36 ScFv7 (purified, re-natured) (scFv)
scFv: QSVLTQPPSVSAAPGQKVTISCSGSSSNIGNNYVSWYQQLPGTAPKLLIYDNNKRPSGIPDRFSGSKSGTSATLGITGLQTGDEADYYCGTWDSSLSAGVFGGGTKLTVLGSGGSTITSYNVYYTKLSSSGTEVQLVQSGGGLVQPGRSLRLSCAASGFTFDDYAMHWVRQAPGKGLEWVSGISWNSGSIGYADSVKGRFTISRDNAKNSLYLQMNSLRAEDTALYYCAKEGDSSGWSPDYWGQGTLVTVSSAS
notes: also called S72; S72A2r1
As for B4, the binding result in assay [1] is “binds”.

B5: phage-displayed ScFv7 (phage clone 12) (scFv)
scFv: QSVLTQPPSVSAAPGQKVTISCSGSSSNIGNNYVSWYQQLPGTAPKLLIYDNNKRPSGIPDRFSGSKSGTSATLGITGLQTGDEADYYCGTWDSSLSAGVFGGGTKLTVLGSGGSTITSYNVYYTKLSSSGTEVQLVQSGGGLVQPGRSLRLSCAASGFTFDDYAMHWVRQAPGKGLEWVSGISWNSGSIGYADSVKGRFTISRDNAKNSLYLQMNSLRAEDTALYYCAKEGDSSGWSPDYWGQGTLVTVSSAS
notes: The phage coat protein fusion partner is not described; also called phage single clone No. 12
B5: the “ELISA Signal (OD490)” value in assay [4] is 0.381 OD490; in assay [5], 0.388 OD490; in assay [6] it was 0.383 OD490.
